Key:
Thra, P63059-2 [1] = target: Thra, P63059-2
Thra, P63059-2 [2] = target: Thra, P63059-2; remark: listed apart in the source

Sequence of Transforming acidic coiled-coil-containing protein 1 (Homo sapiens), O75410-9 L580A;I581A (O75410 other isoform, or with tags, fused parts or gaps L580A;I581A): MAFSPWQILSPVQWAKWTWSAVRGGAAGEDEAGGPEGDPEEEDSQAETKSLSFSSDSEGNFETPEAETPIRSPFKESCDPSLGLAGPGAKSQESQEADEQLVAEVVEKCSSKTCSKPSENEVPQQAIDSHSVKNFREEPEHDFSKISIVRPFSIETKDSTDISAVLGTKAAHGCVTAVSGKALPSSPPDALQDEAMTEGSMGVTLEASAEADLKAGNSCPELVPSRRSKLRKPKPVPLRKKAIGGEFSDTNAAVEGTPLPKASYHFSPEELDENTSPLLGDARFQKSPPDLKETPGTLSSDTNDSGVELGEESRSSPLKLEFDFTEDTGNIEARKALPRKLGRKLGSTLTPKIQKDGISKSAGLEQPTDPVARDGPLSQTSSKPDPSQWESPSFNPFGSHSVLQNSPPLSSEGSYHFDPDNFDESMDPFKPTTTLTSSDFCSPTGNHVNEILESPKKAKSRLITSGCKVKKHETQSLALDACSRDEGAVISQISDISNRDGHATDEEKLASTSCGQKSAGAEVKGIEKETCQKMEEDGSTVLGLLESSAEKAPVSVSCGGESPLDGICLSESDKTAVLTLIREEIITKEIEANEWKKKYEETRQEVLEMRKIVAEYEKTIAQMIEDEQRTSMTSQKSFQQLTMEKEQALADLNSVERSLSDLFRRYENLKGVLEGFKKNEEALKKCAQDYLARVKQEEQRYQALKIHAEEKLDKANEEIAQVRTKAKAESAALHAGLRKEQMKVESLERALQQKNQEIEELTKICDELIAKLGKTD
Sequence of Thra, P63059-2 (P63059 other isoform, or with tags, fused parts or gaps): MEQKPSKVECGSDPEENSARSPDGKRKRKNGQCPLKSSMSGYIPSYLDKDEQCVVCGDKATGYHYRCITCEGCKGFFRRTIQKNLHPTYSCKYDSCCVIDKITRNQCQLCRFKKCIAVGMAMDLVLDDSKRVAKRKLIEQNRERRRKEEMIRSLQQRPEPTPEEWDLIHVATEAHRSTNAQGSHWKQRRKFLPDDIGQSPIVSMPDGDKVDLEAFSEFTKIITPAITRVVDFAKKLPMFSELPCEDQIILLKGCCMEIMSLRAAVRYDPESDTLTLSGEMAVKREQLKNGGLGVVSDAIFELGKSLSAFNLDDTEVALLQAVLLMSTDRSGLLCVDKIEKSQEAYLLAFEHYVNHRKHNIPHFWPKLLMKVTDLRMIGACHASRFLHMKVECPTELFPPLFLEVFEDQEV
Sequence of Thra, P63059-1 (P63059 whole entry): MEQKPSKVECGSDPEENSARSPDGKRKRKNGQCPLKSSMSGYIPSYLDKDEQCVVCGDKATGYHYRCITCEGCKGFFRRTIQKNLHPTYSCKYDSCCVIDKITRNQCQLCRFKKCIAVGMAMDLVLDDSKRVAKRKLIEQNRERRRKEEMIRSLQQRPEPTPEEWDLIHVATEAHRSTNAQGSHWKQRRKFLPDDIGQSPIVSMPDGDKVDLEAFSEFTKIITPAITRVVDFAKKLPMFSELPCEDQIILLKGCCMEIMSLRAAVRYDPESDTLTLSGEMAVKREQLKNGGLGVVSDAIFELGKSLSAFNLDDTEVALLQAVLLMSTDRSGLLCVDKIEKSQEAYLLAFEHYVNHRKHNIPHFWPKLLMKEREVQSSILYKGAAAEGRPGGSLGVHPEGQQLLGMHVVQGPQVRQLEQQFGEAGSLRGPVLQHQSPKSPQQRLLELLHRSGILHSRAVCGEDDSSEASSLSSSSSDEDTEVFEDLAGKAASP
Sequence of Transforming acidic coiled-coil-containing protein 1 (Homo sapiens), O75410-10 L170A;I171A (O75410 other isoform, or with tags, fused parts or gaps L170A;I171A): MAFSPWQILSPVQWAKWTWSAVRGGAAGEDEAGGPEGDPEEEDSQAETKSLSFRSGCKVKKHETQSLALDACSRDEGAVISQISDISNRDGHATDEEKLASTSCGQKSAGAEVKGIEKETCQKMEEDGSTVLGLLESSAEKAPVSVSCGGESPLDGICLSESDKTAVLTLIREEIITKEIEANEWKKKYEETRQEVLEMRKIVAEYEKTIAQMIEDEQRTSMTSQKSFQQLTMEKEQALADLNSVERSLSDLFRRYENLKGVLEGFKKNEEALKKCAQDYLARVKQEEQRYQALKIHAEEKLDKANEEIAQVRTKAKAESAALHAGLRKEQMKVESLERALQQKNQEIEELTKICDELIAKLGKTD

Substance	effect of a mutation on the interaction (Thra, P63059-2 [1])	effect of a mutation on the interaction (Thra, P63059-1)	effect of a mutation on the interaction (Thra, P63059-2 [2])
Transforming acidic coiled-coil-containing protein 1 (Homo sapiens), O75410-9 L580A;I581A	decreasing interaction strength	disrupting interaction strength	–
Transforming acidic coiled-coil-containing protein 1 (Homo sapiens), O75410-10 L170A;I171A	–	–	disrupting interaction strength

— IntAct's records for PubMed 20078863
